From US20230331827A1, “POTASSIUM CHANNEL INHIBITORS” (priority 2017, published 2023) come the findings set out here.

The target in experiment [1] is trypsin. The experiment can be described thus: TRF, 10 ug/mL Fab on trypsin.
The target in experiment [2] is trypsin. The experiment can be described thus: TRF, 2.4 ug/mL Fab on trypsin.
Experiment [3] deals with trypsin. The experiment can be described thus: TRF, 0.6 ug/mL Fab on trypsin.
Experiment [4] deals with trypsin. The experiment can be described thus: phage TRF on trypsin.

B1: KB_A01 Fab (Fab, V domains shown)
VH: EVQLVESGGGLVRPGGSLRLSCAASGFTFSSYAMSWVRQAPGKGLEWVSAISGSGGSTYYADSVKGRFTISRDNTKNSLYLQMTSLRADDTAFYYCVKDFGPGYGTGWFDYWGPGTLVTVSS
VL: YLNWYQQKPGKAPKLLIYAAEVCPRILMRCKQDSDCLAGCVCGPNGFCGGTSGVPSRFSGSRSGTEFTLTISSLQPEDFATYYCQKVDDYPLTFGGGTKVEIKR
For B1, the TRF signal with trypsin [1] is 55600; with trypsin [2] it was 16600; with trypsin [3], 2390.

B2: KB_C10 (scFv on phage) (scFv, V domains shown)
VH: EVQLVESGGGLVRPGGSLRLSCAASGFTFSSYAMSWVRQAPGKGLEWVSAISGSGGSTYYADSVKGRFTISRDNTKNSLYLQMTSLRADDTAFYYCVKDFGPGYGTGWFDYWGPGTLVTVSS
VL: AVNWYQQLPGKAPKLLIYAAGPCPRILMRCKQDSDCLAGCVCGPNGFCGADSGVSDRFSGSKSGTSASLAITGLQAEDEGDYYCAAWDDSLNGLVFGGGTKVTVLG
Regarding B2, in the experiment with trypsin [4], the Tryspin binding signal (FU) amounted to 119000 FU.

B3: KB_B11 (scFv on phage) (scFv, V domains shown)
VH: EVQLVESGGGLVRPGGSLRLSCAASGFTFSSYAMSWVRQAPGKGLEWVSAISGSGGSTYYADSVKGRFTISRDNTKNSLYLQMTSLRADDTAFYYCVKDFGPGYGTGWFDYWGPGTLVTVSS
VL: TQPPSVSEAPRQRVTITCGSRPCPRILMRCKQDSDCLAGCVCGPNGFCGSHNWYQQLPGSSPTTVIYEDNQRPSGVPDRFSGSIDRSSNSASLTISGLKTEDEADYYCQSYDSSNHRVVFGGGTKLTVLG
For B3, the Tryspin binding signal (FU) in the experiment with trypsin [4] was 10300 FU.

B4: KB_C07 (scFv on phage) (scFv, V domains shown)
VH: EVQLVESGGGLVRPGGSLRLSCAASGFTFSSYAMSWVRQAPGKGLEWVSAISGSGGSTYYADSVKGRFTISRDNTKNSLYLQMTSLRADDTAFYYCVKDFGPGYGTGWFDYWGPGTLVTVSS
VL: AVNWYQQLPGKAPKLLIYAAVGCPRILMRCKQDSDCLAGCVCGPNGFCGSASGVSDRFSGSKSGTSASLAISGLRSEDEADYYCASWDDSLRGYVFGTGTKVTVLG
B4 yielded a Tryspin binding signal (FU) with trypsin [4] of 43300 FU.

B5: KB_C08 (scFv on phage) (scFv, V domains shown)
VH: EVQLVESGGGLVRPGGSLRLSCAASGFTFSSYAMSWVRQAPGKGLEWVSAISGSGGSTYYADSVKGRFTISRDNTKNSLYLQMTSLRADDTAFYYCVKDFGPGYGTGWFDYWGPGTLVTVSS
VL: AVNWYQQLPGKAPKLLIYAAAVCPRILMRCKQDSDCLAGCVCGPNGFCGTRSGIPERFSGSKSGTSAFLAISGLRSEDEADYYCAAWDDSLSGVVFGGGTKLTVLG
Regarding B5, in the experiment with trypsin [4], the Tryspin binding signal (FU) turned out to be 76800 FU.

B6: KB_B10 (scFv on phage) (scFv, V domains shown)
VH: EVQLVESGGGLVRPGGSLRLSCAASGFTFSSYAMSWVRQAPGKGLEWVSAISGSGGSTYYADSVKGRFTISRDNTKNSLYLQMTSLRADDTAFYYCVKDFGPGYGTGWFDYWGPGTLVTVSS
VL: QSVLTQLPSVSEAPRQRVTITCGRAMCPRILMRCKQDSDCLAGCVCGPNGFCGTGNWYQQHPGKAPKLIIFDVSKRPSGVPDRFSASKSGNTASLTISGLQAEDEADYYCNSYTSSNTWVFGGGTQLTVLG
B6 had a Tryspin binding signal (FU) with trypsin [4] of 9270 FU.

B7: KB_C09 (scFv on phage) (scFv, V domains shown)
VH: EVQLVESGGGLVRPGGSLRLSCAASGFTFSSYAMSWVRQAPGKGLEWVSAISGSGGSTYYADSVKGRFTISRDNTKNSLYLQMTSLRADDTAFYYCVKDFGPGYGTGWFDYWGPGTLVTVSS
VL: AVNWYQQLPGKAPKLLIYAAGRCPRILMRCKQDSDCLAGCVCGPNGFCGGGSGVPDRFSGSIDSSSNSASLTISGLRAEDEADYYCQSYDSSNHWVFGGGTKLTVLG
B7 had a Tryspin binding signal (FU) in the experiment with trypsin [4] of 89400 FU.

B8: KB_B02 (scFv on phage) (scFv, V domains shown)
VH: EVQLVESGGGLVRPGGSLRLSCAASGFTFSSYAMSWVRQAPGKGLEWVSAISGSGGSTYYADSVKGRFTISRDNTKNSLYLQMTSLRADDTAFYYCVKDFGPGYGTGWFDYWGPGTLVTVSS
VL: AVNWYQQLPGKAPKLLIYAAVGCPRILMRCKQDSDCLAGCVCGPNGFCGTGSGIPERFSGSKSGNTASLTISGLQAEDEGDYYCAAWDDSLSGPVFGGGTKLTVLG
For the molecule B8, the Tryspin binding signal (FU) with trypsin [4] turned out to be 116000 FU.

B9: KB_A11 (scFv on phage) (scFv, V domains shown)
VH: EVQLVESGGGLVRPGGSLRLSCAASGFTFSSYAMSWVRQAPGKGLEWVSAISGSGGSTYYADSVKGRFTISRDNTKNSLYLQMTSLRADDTAFYYCVKDFGPGYGTGWFDYWGPGTLVTVSS
VL: YLNWYQQKPGKAPKLLIYAAEICPRILMRCKQDSDCLAGCVCGPNGFCGPSSGIPARFSGSGYGTDFTLTINNIESEDAAYYFCLQHDNFPYTFGQGTKVEIKR
B9: the Tryspin binding signal (FU) in the experiment with trypsin [4] came out at 16400 FU.

B10: KB_B01 (scFv on phage) (scFv, V domains shown)
VH: EVQLVESGGGLVRPGGSLRLSCAASGFTFSSYAMSWVRQAPGKGLEWVSAISGSGGSTYYADSVKGRFTISRDNTKNSLYLQMTSLRADDTAFYYCVKDFGPGYGTGWFDYWGPGTLVTVSS
VL: AVNWYQQLPGKAPKLLIYAAAGCPRILMRCKQDSDCLAGCVCGPNGFCGTRSGVSDRFSGSKSGTSASLAISGLRSEDEADYYCAAWDDSLRAYVFGTGTKLTVLG
Molecule B10 yielded a Tryspin binding signal (FU) in the experiment with trypsin [4] of 57700 FU.

B11: KB_A10 (scFv on phage) (scFv, V domains shown)
VH: EVQLVESGGGLVRPGGSLRLSCAASGFTFSSYAMSWVRQAPGKGLEWVSAISGSGGSTYYADSVKGRFTISRDNTKNSLYLQMTSLRADDTAFYYCVKDFGPGYGTGWFDYWGPGTLVTVSS
VL: AVNWYQQLPGKAPKLLIYAAGGCPRILMRCKQDSDCLAGCVCGPNGFCGSNSGVPDRFSGSKSGNTASLTISGLQSEDEADYYCAAWDDSLSGVVFGGGTQLTVLG
With B11, in the experiment with trypsin [4], the Tryspin binding signal (FU) worked out at 38800 FU.

B12: KB_A09 (scFv on phage) (scFv, V domains shown)
VH: EVQLVESGGGLVRPGGSLRLSCAASGFTFSSYAMSWVRQAPGKGLEWVSAISGSGGSTYYADSVKGRFTISRDNTKNSLYLQMTSLRADDTAFYYCVKDFGPGYGTGWFDYWGPGTLVTVSS
VL: AVNWYQQLPGKAPKLLIYAAERCPRILMRCKQDSDCLAGCVCGPNGFCGTPSGVPDRFSGSIDTFSNSASLTISGLKTEDEADYYCQSYDSSHHWVFGGGTKLTVLG
As for B12, in the experiment with trypsin [4], the Tryspin binding signal (FU) came to 57700 FU.

B13: KB_B12 (scFv on phage) (scFv, V domains shown)
VH: EVQLVESGGGLVRPGGSLRLSCAASGFTFSSYAMSWVRQAPGKGLEWVSAISGSGGSTYYADSVKGRFTISRDNTKNSLYLQMTSLRADDTAFYYCVKDFGPGYGTGWFDYWGPGTLVTVSS
VL: TQPPSVSEAPRQRVTITCGERPCPRILMRCKQDSDCLAGCVCGPNGFCGANNWYQQLPGSSPTTVIYEDNQRPSGVPDRFSGSIDSSSNSASLTISGLKTEDEADYYCQSYDSSNQVFGGGTKVTVLG
In the experiment with trypsin [4], B13 returned a Tryspin binding signal (FU) of 17400 FU.

B14: KB_A02 Fab (Fab, V domains shown)
VH: EVQLVESGGGLVRPGGSLRLSCAASGFTFSSYAMSWVRQAPGKGLEWVSAISGSGGSTYYADSVKGRFTISRDNTKNSLYLQMTSLRADDTAFYYCVKDFGPGYGTGWFDYWGPGTLVTVSS
VL: AVNWYQQLPGKAPKLLIYAAAKCPRILMRCKQDSDCLAGCVCGPNGFCGGASGVSDRFSGSIDSSSNSASLTISGLKPEDEGDYYCQSYDSSNRWVFGGGTKVTVLG
For B14, the TRF signal worked out at 255000 with trypsin [1], 221000 with trypsin [2] and 93800 in the experiment with trypsin [3].
